Experimental data: patent US12551583B2, “Radiolabeled ligands for targeted PET/SPECT imaging and methods of their use” (MEMORIAL SLOAN KETTERING CANCER CENTER, priority 2016, dated 2026)

Experiments:
[1] = test system: LNCaP tumor-bearing male nude mice; settings: mouse, in vivo
Description: (§1) LNCaP shoulder nude mouse xenografts. The cells were removed from the flasks, concentrated, and resuspended in minimal media for cell counting. The cells were then diluted to contain approximately 3-6 million cells in 150 μL of 1:1 media and matrigel (or shoulder xenografts). Following an MSKCC Institutional Animal Care and Use Committee approved protocol, 150 μL of the cell suspension was injected subcutaneously in 6-8 week old nude male mice (CRL). Mice were used in studies at 3-8 weeks post inoculation. The mice were injected with 50-75 μCi (0.9-0.4 nmol) of the respective radiopharmaceutical for in vivo biodistribution or 500-600 μCi (9-11 nmol) for in vivo imaging. […]
(§2) In vivo animal PET imaging and biodistribution. […] All images were analyzed using ASIPro VM (Concorde Microsystems). […] All SPECT images were reconstructed using HiSPECT and analyzed using InVivoScope. […] The mass injected was corrected by the percent of radioactivity injected. Four to five aliquots (10 μL) were weighed and counted as internal standards for each study. All of the collected organs were counted using an automatic gamma counter (Wizard 3″, PerkinElmer, Waltham, MA). The total injected dose was found as the mass injected dose×fraction radioactivity injected×internal standard average counts/g. The percent injected dose (% ID) was determined as the counts for the tissue×100/total injected dose. […]

[2] = in vivo; settings: female, BALB/c, mouse, iv, 50 uCi, total radioactivity, 4T1 tumoral uptake
Description: (§3) 4T1 orthotopic BALB/c mouse model. The cells were removed from the flasks, concentrated, and resuspended in minimal media for cell counting. The cells were then diluted to contain approximately 1 million cells in 30 μL of media (for orthotopic allografts). Following an MSKCC Institutional Animal Care and Use Committee approved protocol, 8-10 week old BALB/c mice (Charles River Laboratories, Wilmington, MA) were surgically implanted with one million 4T1 cancer cells into the first or the last mammary fat pad of the right side of the animal using aseptic surgical techniques and sterile staple closures while the mice were under anesthetic. Additionally, mice were given injections of meloxicam (24 h pain killer) in the scruff and bupivacaine intradermally prior to surgical incisions. One day post surgery, the mice were again given meloxicam and checked to ensure that the closure was healing. Two and three days post surgery, the mice were checked to ensure that the animals were healthy and recovering well from the surgery. Five to seven days post surgery, the staples were removed. Five to nine days post surgery, the mice were injected with 50-75 μCi (0.9-0.4 nmol) of the respective radiopharmaceutical for in vivo biodistribution or 500-600 μCi (9-11 nmol) for in vivo imaging. The mice receiving ^64Cu-NOTA-pHLIP were sacrificed at 1, 2, 4, 12, 24, 36, and 48 h; the mice receiving [^18F]—AlF-NOTA-pHLIP were sacrificed at 0.5, 1, 2, 4, 6 and 8 h. The 4T1 tumors in this study were purposely used 5-9 days after inoculation to ensure lower tumoral pH. Animal models. Animal studies were conducted according to MSKCC IACUC-approved animal protocol. 4T1 (orthotopic breast cancer allografts of 1×10^6 cells surgically implanted in the mammary fat pad) and B16-F10 (orthotopic melanoma allografts of 1×10^5 cells injected intradermally on the shoulder) tumors were orthotopically inoculated in media in female BALB/c and C57Bl/6 mice (Charles River Laboratories (CRL)), respectively. Additionally, PC3 (3×10^6 cells) or LNCaP (3-6×10^6 cells) tumors were subcutaneously xenografted on the shoulder of athymic nude male mice (CRL). Mice were used once tumor volumes were approximately 90-300 mm^3. In vivo animal PET imaging and biodistribution. Mice were injected with radiolabeled NOTA-pHLIP derivatives i.v. (500-700 μCi/mouse for PET or SPECT imaging studies and 25-100 μCi/mouse for biodistribution studies). All injections were less than 200 μL with <10% EtOH in sterile PBS. PET images were obtained with the mice under anesthesia in an Inveon PET-CT or microPET Focus 120 (Siemens) at 0.5-48 h p.i. All images were analyzed using ASIPro VM (Concorde Microsystems). SPECT images were obtained with the mice under anesthesia in a NanoSPECT/CT Plus at 4-24 h p.i. All SPECT images were reconstructed using HiSPECT and analyzed using InVivoScope. Dissections for ex vivo biodistribution were performed on mice after CO2 asphyxiation or cervical dislocation while anesthetized at reported time points. Weight of the syringe prior to injection and after injection was used to determine the mass of injectate. Activity of the syringe prior to injection and after injection was used to determine the percent of injectate administered. The mass injected was corrected by the percent of radioactivity injected. Four to five aliquots (10 μL) were weighed and counted as internal standards for each study. All of the collected organs were counted using an automatic gamma counter (Wizard 3″, PerkinElmer, Waltham, MA). The total injected dose was found as the mass injected dose×fraction radioactivity injected×internal standard average counts/g. The percent injected dose (% ID) was determined as the counts for the tissue×100/total injected dose. The % ID/g was calculated as the % ID/tissue weight. The average and standard deviation of the % ID and % ID/g was determined using normal methods (n−1) for each set of mice.

[3] = test system: PC3 tumor-bearing male nude mice; settings: mouse, in vivo
Description: as §1, with “PC3” for “LNCaP”, “3” for “3-6”, “(for” for “(or”, “6-9” for “6-8”, “3” for “3-8”
as §2

[4] = test system: 4T1 orthotopic tumor-bearing BALB/c mice; test: in vivo; settings: mouse
Description: as §3

[5] = test system: tumor; settings: in vivo; cited from earlier work

CC(C)C[C@@H](NC(=O)[C@@H](CC(C)C)NC(=O)[C@@H](CC(=O)O)NC(=O)[C@@H](CC(C)C)NC(=O)[C@@H](CC(C)C)NC(=O)[C@@H](CC(C)C)NC(=O)[C@H](NC(=O)[C@@H](CC(=O)O)NC(=O)[C@H](NC(=O)[C@H]1CCCN1C(=O)[C@@H](Cc1ccccc1)NC(=O)[C@@H](CC(C)C)NC(=O)[C@@H](CC(C)C)NC(=O)[C@@H](CC(=O)O)NC(=O)[C@@H](CC(C)C)NC(=O)[C@@H](Cc1ccc(O)cc1)NC(=O)[C@@H](C)NC(=O)[C@@H](CCCNC(=N)N)NC(=O)[C@@H](Cc1c[nH]c2ccccc12)NC(=O)[C@H]1CCCN1C(=O)[C@@H](CC(N)=O)NC(=O)[C@@H](CCC(N)=O)NC(=O)[C@@H](CC(=O)O)NC(=O)[C@@H](CC(=O)O)NC(=O)[C@@H](CSC1CC(=O)N(CCNC(=O)CN2CCN(CC(=O)O)CCN(CC(=O)O)CC2)C1=O)NC(=O)[C@@H](C)N)[C@H](C)O)[C@H](C)O)C(=O)N[C@H](Cc1c[nH]c2ccccc12)C(=O)O (single isomer, unassigned) [^64Cu-NO2A-cysVar3, metal not drawn]
tumor:bone ratio [1]: 4.2±1.7
tumor:muscle ratio [1]: 6±2
tissue uptake at 24 h [2]: 19.2 ± 1.8 %ID/g
tumor:bone ratio [3]: 2.7±0.6
tumor:muscle ratio [3]: 7.4±1.3

CC(C)C[C@@H](NC(=O)[C@@H](CCC(=O)O)NC(=O)[C@@H](CC(C)C)NC(=O)[C@@H](CC(C)C)NC(=O)[C@@H](CC(C)C)NC(=O)[C@H](NC(=O)[C@@H](CCC(=O)O)NC(=O)[C@H](NC(=O)[C@H]1CCCN1C(=O)[C@@H](Cc1ccccc1)NC(=O)[C@@H](CC(C)C)NC(=O)[C@@H](Cc1c[nH]c2ccccc12)NC(=O)[C@@H](CCC(=O)O)NC(=O)[C@@H](CC(C)C)NC(=O)[C@@H](Cc1ccc(O)cc1)NC(=O)[C@@H](CCCNC(=N)N)NC(=O)[C@@H](C)NC(=O)[C@@H](Cc1c[nH]c2ccccc12)NC(=O)[C@H]1CCCN1C(=O)[C@@H](CC(N)=O)NC(=O)[C@@H](CCC(N)=O)NC(=O)[C@@H](CCC(=O)O)NC(=O)[C@@H](CCC(=O)O)NC(=O)[C@@H](CS)NC(=O)[C@@H](C)NC(=S)Nc1ccc(CC2CN(CC(=O)O)CCN(CC(=O)O)CCN2CC(=O)O)cc1)[C@H](C)O)[C@H](C)O)C(=O)O (single isomer, unassigned) [^64Cu-NOTA-Var7, metal not drawn]
kidneys-to-large intestine ratio [4]: 0.32±0.07
biodistribution, Blood ([4]; iv, 4 h): 0.833 ± 0.068 % ID/g
biodistribution, Bone ([4]; iv, 4 h): 0.229 ± 0.093 % ID/g
biodistribution, Brain ([4]; iv, 4 h): 0.042 ± 0.004 % ID/g
biodistribution, Heart ([4]; iv, 4 h): 0.35 ± 0.04 % ID/g
biodistribution, Kidneys ([4]; iv, 4 h): 6.790 ± 0.461 % ID/g
biodistribution, L. intestine ([4]; iv, 4 h): 7.78 ± 0.61 % ID/g
biodistribution, Liver ([4]; iv, 4 h): 0.739 ± 0.041 % ID/g
biodistribution, Lungs ([4]; iv, 4 h): 0.996 ± 0.066 % ID/g
biodistribution, Muscle ([4]; iv, 4 h): 0.118 ± 0.025 % ID/g
biodistribution, Pancreas ([4]; iv, 4 h): 0.198 ± 0.043 % ID/g
biodistribution, S. intestine ([4]; iv, 4 h): 0.307 ± 0.077 % ID/g
biodistribution, Skin ([4]; iv, 4 h): 0.563 ± 0.145 % ID/g
biodistribution, Spleen ([4]; iv, 4 h): 0.279 ± 0.016 % ID/g
biodistribution, Stomach ([4]; iv, 4 h): 0.300 ± 0.076 % ID/g
biodistribution, Tumor (4T1 tumoral uptake) ([4]; iv, 4 h): 0.546 ± 0.075 % ID/g
overall tumor uptake [5]: 1.36±0.43 % ID/g
